Experimental data: EP2033655B1
Ends that are not written are not given here.

Biological target: Cell-surface expressed nucleolin (on THP-1 monocytic cells; on HeLa P4 cells) (human), P19338
Assay: cell-based or functional assay

Sequence of Cell-surface expressed nucleolin (on THP-1 monocytic cells; on HeLa P4 cells) (human), P19338 (P19338 2-710 limits assumed): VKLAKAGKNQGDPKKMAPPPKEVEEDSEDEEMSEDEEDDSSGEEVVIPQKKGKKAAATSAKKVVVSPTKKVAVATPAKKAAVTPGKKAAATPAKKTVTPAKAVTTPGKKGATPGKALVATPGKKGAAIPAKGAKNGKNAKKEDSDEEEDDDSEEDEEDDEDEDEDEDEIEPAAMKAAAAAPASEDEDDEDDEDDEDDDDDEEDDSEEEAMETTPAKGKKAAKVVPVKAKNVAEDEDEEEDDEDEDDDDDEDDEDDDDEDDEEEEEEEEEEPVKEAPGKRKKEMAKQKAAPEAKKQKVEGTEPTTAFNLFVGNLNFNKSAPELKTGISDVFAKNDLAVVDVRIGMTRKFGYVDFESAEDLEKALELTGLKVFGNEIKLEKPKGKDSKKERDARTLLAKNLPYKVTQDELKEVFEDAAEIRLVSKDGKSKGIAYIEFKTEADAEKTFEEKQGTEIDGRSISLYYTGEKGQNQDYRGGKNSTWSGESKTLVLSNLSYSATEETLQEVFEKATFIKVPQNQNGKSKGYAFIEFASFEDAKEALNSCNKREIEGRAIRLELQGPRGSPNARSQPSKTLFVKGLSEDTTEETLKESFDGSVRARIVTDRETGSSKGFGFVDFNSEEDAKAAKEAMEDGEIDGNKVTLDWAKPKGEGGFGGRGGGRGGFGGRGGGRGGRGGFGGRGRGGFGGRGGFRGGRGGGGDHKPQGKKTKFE

B1: HB-19 pseudopeptide, 5[Lys (CH2N)Pro-Arg]-template-assembled synthetic peptide (peptide)
chain: KKKGPKEK
peptide: Lys-Pro-Arg
modifications: also: Lys (CH2N)Pro reduced bond, five Lys-Pro-Arg units assembled on template
level of infection of THP-1 cells, HB-19 together with anti-CR3 Mab: 95%
